Experimental data taken from the nanobody polyreactivity screen of Harvey et al. (2022).

Assay: yeast display, Sf9 membrane polyspecificity reagent, FACS + sequencing; frameworks hold sequencing errors
Procedure, shortened: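 Genes from sorted yeast were amplified by colony PCR, read by MiSeq 2 × 250 sequencing and filtered on CDR length. These cells carried a synthetic nanobody library in Saccharomyces cerevisiae BJ5465 and were sorted by FACS into low and high (top ~1%) gates on anti-HA and streptavidin fluorescence. Polyreactivity is labelled according to the gate of origin.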

Sequence	polyreactivity (PSR sort gate)
QVQLVESGGGLVQAGGSLRLSCAASVSTFVGNAMGWYRQAPGKERELHAAISSGGSRTNYADSVKGRFTISRDNAKNTVYLQMNSLKPEDTAVYYCIAVFPRWQGSGRFAGGDYWGQGTQVTLSS	high polyreactivity
QVQLVESGGGLVQAGGSLRLSCAASGLIFLQYVMGWYRQAPGKEREFVATITDDGDTTYYADSVKGRFTISRDNAKNTVYLQMNSLKPEDTAVYYCAARYVPVYYWDYPYDYWGQGTQVTVSS	low polyreactivity
QVQLEESGGGLVQAGGSLRLSCAASGITFRYYAMGWYRQAPGKEWELVAAITRSGSSTFYADSVKGRFTISRDNAKNTVYLQMNSLKPEDSAVYYCAAESVRAVFPDRYKYWGQGTQVTVSS	high polyreactivity
QVQLVESGGGLVQAGGSLRLSCAASGSTFKVYAMGWYRQAPGKERELVATISKSGSTYADSVKGRFTISRDNAKNTVYLQMNCLKPEDTAVYYCAADLYTYPRTRRRAYGYWGQGTQVTVSS	high polyreactivity
QVQLVESGGGLVQAGGSLRLSCAASGSTYFHYAMGWYRQAPGKERELVAAISKSVGTTYYADSVKGRFTISRDNAKNTVYLQMNSLKPEDPAVYYCAADSVITWWAYDYWGQGTQVTVSS	high polyreactivity
QVQLVESGGGLVQAGGSLRLSCAASGFIFYRNTMGWYRQAPGKEREFVAAIRWRGGSTYYADSVKGRFTISRDNAKNTFYLQLNSVKPEDTAVYYCAADTRPGYSGFEYWGQGTQVTVSS	high polyreactivity
QVQLVESGGGLVQAGGSLRLSCAASGSIFYANAMGWYRQAPGKERELVAAISWSGGRTYYADSVKGRFTISRDNAKNTVYLQMNSLKPEDTAVYYCNVLPLYLEYDYWGQGTQVTVSS	high polyreactivity
QVQLVESRGCLVQAGGSLRLSCAASGFIFAYYAMGWYRQAPRKERELVGAISSGGTTNYADSVMGRFTSSRDNAKNTVYLQMNSLKPEDTAVYYCAAAWGYYSTTIYKYSFNYDFWGQGTQVTVSS	high polyreactivity
QVQLVESGGGLVQAGGSLRLSCAASGRTLYYNPMGWYRQAPGKEREFVAAISYSGGGTYYADSVKGRFTISRDNAKNTVYLQMNSLKPEDTAVYYCNARIRRPYRVTAEYDYWGQGTQVTVSS	high polyreactivity
QDQLVESGGGLVQAGGSLRLSCAASGSTFIDNVMGWYRQPPGQERELVAAINSGGSTDYADSLKGRFTISRDNAKNTVYLLMNRLKPEDTAVYYCNAYHIVIYDYWGQGTQVTVSS	low polyreactivity
QVQLVESGGGLVQPGGSLRLSCAAYRSTFTDYDKGWYRQAPGKERELVAAITSGGSTNYADSVKGRFTISRDNAKNTFYLQLNSLKPEDTAVYYCAAADSDRKYDYWGQGTQVTVSS	low polyreactivity
QVQLVESGGGLVQAGGSLRLSCAASGRIFGSYAMGWYRQAPGKERELVATISRRGGSTYYADSVKGRFTISRDNAKNTVYLQMNRLKPEDTAVYYCNADYKITKTWSGTIRYYYWGQGTQVTVSS	high polyreactivity
QVQLQESGGGLEQAGGSLRLSCAASGYIFPTAIKGWYRQAPGKERKLVAAINPGSNTYYADSVKGRFTFSRDNANNSVYLQMNSLKPEDAAVYYCGVSIWLVGTLDYWGQGTQVTVSS	low polyreactivity
QVQLVESGGGLVQAGGSLRLSCAASGSTLPYNAMGWYRQAPGKERELVAAISKSGGRTYYADSVKGRFTISRDNAKNTVYLQMNSLKPEDTAVYYCNAGPYRGGGGSSRYYWGQGTQVTVSS	high polyreactivity
QVQLVESGGGLVQAGGSLRLSCAASGNIFGLNAMGWYTQAPGKEREFVAAITKTGGSTYYADSVKGRFTISRDNAKNTVYLQMNSLKPEDTAVYYCAARGLPRGYPYEYGYWGQVTQVTVSS	high polyreactivity
QVQLVESGGGLVQAGGSLRLSCAASGSIFSYYAMGWYRQAPGKERELVAAISWSGGRTYYADSVKGRFTISRDNAKNTVYLQMNSLKPEDTAVYYCNVDVYVVPHYDYWGQGTQVTVSS	high polyreactivity
QVQLVESGGCIVQAGGSLRLSCAASGRNLAPNAMGWSRQAPGKERELVAGITWSGGSTYYADSVKGRFTISRDNAKNTVYLPMNSLKPEDTAVYYCAACRSFPGYGLYYYWGQGTQVTVSS	low polyreactivity
QVQLVESGGGLVQAGGSLRVSCAASGFTFPYSAMGWYRQAPGKERELVAAIDWTGGSTYYADSVKGRFTISRDNPKNTVNLQINSLIPDDTAVYYCARDVDYYISSPTPPVVELDYWGQGTQVTVSS	low polyreactivity
QVQLVESGGGLVQAGGSLRLSCAASGFTFYAYAMGWYRQAPGKERELVAAITWDDDSTSYADSVKGRFTISRDNAKNTVYLQMNSLKPEDTAVYYCAADSIRHRRYKYDYWGQGTQVTVSS	low polyreactivity
QVQLVESGGGLVQAGGSLRLSCAASGSTFVVNAMGWYRQAPGKERELVAAITQSGGSTFYADSVKGRFTISRDNAKNTVYLQINSLKPEDTAVYYWGQCTQVTVSS	low polyreactivity
QVQLVESGGGLVQAGGSLRLSCAASGSTFQTDTMGWYRQAPGKERELVASITWRGGRTYYADSVKGRFTISRDNAKNTVYLQMNSLKPEDTAVYYCAAVTFSYDGYDYWGQGTQVTVSS	low polyreactivity
QVQLVESGGGLVQAGGSLRLSCAASGSIFACYAMGRYRQAPGKERELVATITWSGGSTYYADSVKGRFTISRDNAKNTVYLQMNSLKPEDTAVYYCAAEVVGIWYDLWYQGDYWGQGTQVTVSS	low polyreactivity

Sequence	polyreactivity (PSR sort gate)
QVQLVESGGGLVQAGCSLRLSCAASGFTFIQYAMGWYRPAPGKERELVAAITRSGGRTYYADSVKGRFTISRDNAKNTVYLQMNSLKPEDTAVYYCNAVSRIYPGDEFGYWGQGTQVTVSS	high polyreactivity
EEELVESGGGLVQAGGSSLRLSCAASGRTFSTNVMGWYRQAPGKERELVAAINRSGGSTYYADSVKGRFTISRDNAKNTVYLQMNSLKPEDTAVYYCAKRDGVGNHEFDYWGQGTQVTVSS	low polyreactivity
QVQLVESGGGLVQAGGSLRLSCAASGITFLFYAMGWYRQAPGKERELVAAISRSGGSTYYADSVKGRFTISRDNAKNTVYLQMNSLKPEDTAVYYCAARSKDGGGPMYYWGQGTQVTVSS	high polyreactivity
QVQLVESGAGLVQAGGSLRLSCAASGFIFEINAMGWYRQAPGKERELVAVITNSGGSTYYADSVKGRFTISRDNAKYTVYLQMNSLKPEDTAVYYCAADAVHYTNDWYDYWGQGTQVTVSS	low polyreactivity
QVQLVESGGGLVQAGGSLRLSCAASGSTYYTYAMGWYRQAPGKERELVAAISWSGGTTYYADSVKGRFTISRDNAKNTVSLQMNSLKPEATAVYYCASDRDGILKANVYWGQCTQVTVSS	low polyreactivity
QVQLEESGGGLVQAGGSLPLSCAASGFIFGRYAMGWYRQAPGKEREFVASISWSGGSTYYADSVKGRFTISRDNAKNTVYLQMNSLKPEDTAVYYCAAYVRKDRSRGLYGYWGQGTQVTVSS	high polyreactivity
QVQLVESGGGLVQAGGSLRLSCAASGRIFGANAMGWYRQAPGKERELVAAISGSGGRTYYADSVKGRFTISRDNAKNTVYLQMNSLKPEDTAVYYCAAGRPTYSRYFGFEYWGQGTQVTVSS	high polyreactivity
QVQLVESGGGIVQAGGSLRLSCAASGITFPFYTMGWYRQAPGKERELVADISSRGTSTYYADSVKGRFTISRDNAKYTVYLQMNSLNPEDTAVYYCKARATPQRAYDSWGQGTLVTVSS	high polyreactivity
QVQLVDSGGGLVQAGGSLRLSCAASGNIICGYARGRNIQAPGKEREMVASISQRGGITYYADSVKGRFTISRDKAKNTVYLEMNSLKAEDTEVYYCAKRGTYGWYGAYDYWGEGTQVTVSS	low polyreactivity
QVQLVESGGGLVQAGGSLRLSCAASGSIFIRNVMGWSRQAPGKERELVAAISSRGGSTYYADSVKGRFTISRDNAKNTVDLQMNSLKPEDTAVYYCNRYSYLFPYYWKYDYWGQGTQVTVSS	high polyreactivity
QVHLVESGGGLVQSGGSLRLSCAATGNIFGRYAKGWYRQAPGKERELVAGISRGVSTSYADSVKGPFTISRDNAKNTVYLQMYSLKPDDTAVYYCTKRPWYLSDYWGQGTEVTVSS	low polyreactivity
QVQLVESGGGLDQAGGSLRLSCAASGRIFQYYAMGWYRQAPGKERELVAAITSGGRTTYADSVKGRFTISRDNAKNNVYLQMNSLKPEDTAVYYCNAKTWYSYNYWGQGTQVTVSS	high polyreactivity
QVQLVDSGGGLVQAGGSLRLTCAASGIIFYYYAMGWYRQAPGKERELVAAITGTGSRTYYADSVKGRFTISRDNAKNTVYLQMNSLKPEDTAVYYCNARSFATGSKVPARGYWGQGTQVTVSS	high polyreactivity
QVQLVESGGGLVQAGGSLRLSCAASGIIFAVYAMGWYRQAPGKERELVAAISTSGGRTYYADSVKGRFTISRDNAKNTVYLQMNSLKPEDTAVYYCAAEYVGKGTPDDYDYWGQGTQVTVSS	high polyreactivity
QVQLVESGGGLVQAGGSLRLSCAASGIIIGYYAMGWYRQAPGKERELVAAISSIGGSTYYADSVKGRFTISRDNAKNTVYLQMNSLKPEDTAVYYCAAKYYGRYYRYLGSSFDYWGQGTQVTVSS	high polyreactivity
QLQLVESVGVLVQAGGSLRLSCAASGFIFDGYAMGWYRQAPGKERELVAAIDSGGDRTYYADSVKGRFTISRDNAKNTVYLQMNSLKPEDTAVYYCARTFRTYAPRPYQGDYWGQGTQVTVSS	low polyreactivity
QVQLVESGGGLVQAGGSLRLSCAASGSILYGYAMGWYRQAPGKERELYASITSDGSSNYADSVKGRFTISRDNAKNTVYFQMNSLKPEDTAVYYCAADVRLIWSASLTTSKYDYWGQGTQVTVSS	low polyreactivity
QVQLVESGGGLVQAGGSLRLSCAASGFILGRYAMGWYRQAPGKERELVAAISIGGRTNYADSVKGRFTISRDNAKNTVYLQMNSLKPEDTEVYYCAVDRYVTYSLSNSLYEYWGQGTQVTVSS	low polyreactivity
QVQLVESGGGLVQAGGSLRLSCAASGSIFRYYAMGWYRQAPGKERELVASITRRGGSTYYADSVKGRFTISRDNAKNTVYLQMNSLKPEDTAFYYCAAHKTYVREYYWGQGTQVTVSS	high polyreactivity
QVQLVESGGGLVQAGGSLRLSCAASGLTFSVYAMGWYRQAPGKERELVAAISGSGGSTYYADSVKGRFTISRDNAKNTVYLQMNSLKPEDTAVYYCAARYDVHYDGMDYWGLGTQVTVSS	low polyreactivity
QVQLVESGGGLVQAGGSLRLSCAASGFIFYKYAMGWYRQAPGKERELVAAISKRGGSTYYADSVKGRFTISRDNAKNTVYLQMNSLKPEDNAVYYCATVGGNSGTVRYFASDYWGQGTKVTVSS	high polyreactivity
